Data: US20040235744A1
Read-outs that look alike come from different tables or passages of the source.

Columns and labels:
[1] = biological target: nNOS-II (novel constitutive neuronal nitric oxide synthase purified from rat cerebellum) (rat); assay: enzyme inhibition kinetics on purified nNOS-II, competitive against BK as substrate, oxyhemoglobin assay, EZ-FIT
[2] = biological target: nNOS-II (novel constitutive neuronal nitric oxide synthase purified from rat cerebellum) (rat); assay: as above; remark: listed apart in the source
Cit^1-BK = system: T1, Cit^1-BK
T1 sequence: XPPGFSPFR

Met-Lys-BK = system: T2, Met-Lys-BK
T2 sequence: MKRPPGFSPFR

BK fragment 2-7 = system: T3, BK fragment 2-7
T3 sequence: PPGFSP

[3] = system: bradykinin (Arg-Pro-Pro-Gly-Phe-Ser-Pro-Phe-Arg)
Ile-Ser-BK = system: T4, Ile-Ser-BK
T4 sequence: ISRPPGFSPFR

[Lys^1]-BK = system: T5, [Lys^1]-BK
T5 sequence: KPPGFSPFR

Des-Arg^1-BK = system: T6, Des-Arg^1-BK
T6 sequence: PPGFSPFA

BK fragment 1-7 = system: T7, BK fragment 1-7
T7 sequence: RPPGFSP

BK fragment 1-5 = system: T8, BK fragment 1-5
T8 sequence: RPPGF

Lys-BK = system: T9, Lys-BK
T9 sequence: KRPPGFSPFR

| Ki [1] | Ki [2] | Substance | apparent KM (NOS activity, oxyhemoglobin assay) (Cit^1-BK) | apparent Vmax (NOS activity, oxyhemoglobin assay) (Cit^1-BK) | Relative activity (%) as substrate, L-arginine = 100% (Met-Lys-BK) | Relative activity (%) as substrate, L-arginine = 100% (BK fragment 2-7) | Relative activity (%) as substrate, L-arginine = 100% [3] | apparent KM (NOS activity, oxyhemoglobin assay) [3] | apparent Vmax (NOS activity, oxyhemoglobin assay) [3] | Relative activity (%) as substrate, L-arginine = 100% (Ile-Ser-BK) | Relative activity (%) as substrate, L-arginine = 100% ([Lys^1]-BK) | Relative activity (%) as substrate, L-arginine = 100% (Poly-arginine (Mr 5,000)) | Relative activity (%) as substrate, L-arginine = 100% (Des-Arg^1-BK) | Relative activity (%) as substrate, L-arginine = 100% (BK fragment 1-7) | Relative activity (%) as substrate, L-arginine = 100% (BK fragment 1-5) | Relative activity (%) as substrate, L-arginine = 100% (Lys-BK) |
| --- | --- | --- | --- | --- | --- | --- | --- | --- | --- | --- | --- | --- | --- | --- | --- | --- |
| 2.5 µM | 2500 µM | [N-adamantaneacetyl-D-Arg^0, Hyp^3, Thi^5,8, D-Phe^7]-BK (peptide) |  |  |  |  |  |  |  |  |  |  |  |  |  |  |
|  |  | nNOS-II (novel constitutive neuronal nitric oxide synthase purified from rat cerebellum) | Apparent KM values for BK and Cit^1-BK were 8.5 and 6.2 µM, respectively | apparent Vmax values for BK and Cit^1-BK were 1.2 and 1.6 µmol/min/mg protein, respectively | 0% | 0% | 125% | Apparent KM values for BK and Cit^1-BK were 8.5 and 6.2 µM, respectively | apparent Vmax values for BK and Cit^1-BK were 1.2 and 1.6 µmol/min/mg protein, respectively | 110% | 113% | 30% | 94% | 80% | 61% | 116% |
